The text below walks through data of US20210171593A1.

The term IC50 denotes the point on the concentration scale where inhibition reaches its midpoint. The EC50 is the concentration giving half of the maximal effect. High values mean a need for much substance, low ones an effect from little substance.

Test [1] has as its target Biotin-Fc-CD47 (Homo sapiens (Human)) (UniProt Q08722). Kind of test: competition ELISA: blocks Biotin-Fc-CD47 binding to coated SIRPα-His. (In general: In an ELISA, binding on a coated surface is turned into a signal by an enzyme label.)
Test [2] has as its target CD47 on the surface of tumor cells (Raji cells, Jurkat cells, A549 cells) (human) (UniProt Q08722). Put plainly: flow cytometry on Jurkat cells. On the technique in general: In flow cytometry, cells or beads pass a laser one at a time.
Test [3] has the same target. Put plainly: flow cytometry on Raji cells.
The target is the same in test [4]. Kind of test: flow cytometry on A549 cells.
Test [5] addresses CD47-FITC (Homo sapiens (Human)) (UniProt Q08722). Put plainly: flow cytometry of the wild domain control with the same gate as the library panel above it (CD47-FITC in the text, x axis printed APC-A), first panel, under the 3% panel.
For test [6] the target is unchanged. Put plainly: flow cytometry of the wild domain control with the same gate as the library panel above it (CD47-FITC in the text, x axis printed APC-A), second panel, under the 4.9% panel.
The target is the same in test [7]. Put plainly: flow cytometry of the wild domain control with the same gate as the library panel above it (CD47-FITC in the text, x axis printed APC-A), third panel, under the 12.5% panel.

Molecule TTI-621 (Fc fusion) displayed an IC50 in test [1] of 494 µg/mL. In addition, the EC50 in test [2] came to 0.0539 µg/mL; in test [3], 0.0404 µg/mL; in test [4], 1 µg/mL. Besides, the maximum fluorescence intensity in test [2] was 3000; in test [3], 600; in test [4], 60.

B1: Wild domain control (receptor, part only; not given: display vector transmembrane region, not shown: another chain or arm of the molecule; large carriers; small tags and cut ends)
chain: ELQVIQPDKSVLVAAGETATLRCTATSLIPVGPIQWFRGAGPGRELIYNQKEGHFPRVTTVSDLTKRNNMDFSIRIGNITPADAGTYYCVKFRKGSPDDVEFKSGAGTELSVRAKPS
modifications: displayed on the CHO cell surface through the pTM transmembrane region (no letters given); the pTM signal peptide is left off as cleaved
B1: the percent of cells in gate P2 in test [5] was found to be 1.3%; in test [6], 0%; in test [7], 0%.
